From patent US20260242478A1 (published 2026)

Legend:
[1] = target: T1, Anti-CD28 scFv (VH - linker 1 - VL) (biotinylated (site not stated)); assay: clonal phage ELISA on captured anti-CD28 scFv, wells pre-incubated with soluble CD28 as competitor;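 also: crude phage supernatants used, bound phage read out via HRP-linked anti-M13 antibody, with comparison wells given blocking buffer lacking soluble CD28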
[2] = target: T1, Anti-CD28 scFv (VH - linker 1 - VL); assay: clonal phage ELISA on biotinylated anti-CD28 scFv captured on neutravidin plates, anti-M13 HRP detection;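 also: crude phage supernatants were used, and before phage were added the wells were pretreated with blocking buffer, either alone or with soluble CD28 protein, without washing in between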
Experimental: Clonal phage were harvested as crude supernatants and screened via standard enzyme linked immunosorbent assays (ELISAs). […] Prior to the addition of clonal phage, wells were incubated with blocking buffer and CD28 soluble protein or blocking buffer alone. Without washing or aspirating, clonal phage supernatants were then added to the wells and incubated for a short time. Wells were then washed followed by detection of bound phage using a horse radish peroxidase conjugated anti-M13 antibody.

[3] = target: anti-CD28 scFv (VH - linker 1 - VL) (biotinylated (site not given)); assay: phage ELISA as before, wells pre-incubated with soluble CD28 (competitor)
Sequence of anti-CD28 scFv (VH - linker 1 - VL) (biotinylated (site not given)) (scFv, as listed by the source): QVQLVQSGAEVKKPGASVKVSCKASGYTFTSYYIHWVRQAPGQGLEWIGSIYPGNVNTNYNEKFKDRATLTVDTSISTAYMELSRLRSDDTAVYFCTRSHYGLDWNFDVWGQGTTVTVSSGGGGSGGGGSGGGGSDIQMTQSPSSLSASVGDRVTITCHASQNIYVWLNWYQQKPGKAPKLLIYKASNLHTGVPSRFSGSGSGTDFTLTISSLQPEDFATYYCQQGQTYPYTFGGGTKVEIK

T1 sequence (scFv, as listed by the source): as above

| Binder | CD28 scFv signal in presence of CD28 [1] | CD28 scFv signal [2] | CD28 scFv signal in presence of CD28 [3] |
| --- | --- | --- | --- |
| MDWCPSYLWHECFA (tested as crude clonal phage supernatant) [Phage-134] | 0.198 | 2.28 |  |
| MDWCPRDLWDQCYA (tested as crude clonal phage supernatant) [Phage-122] | 0.201 | 2.41 |  |
| MDWCPSYLWTVCFA (tested as crude clonal phage supernatant) [Phage-129] | 0.096 | 2.34 |  |
| MDWCPRYLWHMCYS (tested as crude clonal phage supernatant) [Phage-119] | 1.17 | 2.42 |  |
| MDWCPIHLWNECFA (tested as crude clonal phage supernatant) [Phage-123] | 0.203 | 2.4 |  |
| MDWCPRPLWDMCFF (tested as crude clonal phage supernatant) [Phage-124] | 0.138 | 2.4 |  |
| MHWCPIYLWDECFN (tested as crude clonal phage supernatant) [Phage-136] | 0.193 | 2.23 |  |
| MDWCPTYLWFECFN (tested as crude clonal phage supernatant) [Phage-132] | 0.224 | 2.33 |  |
| MDWCPRSLWIYCFN (tested as crude clonal phage supernatant) [Phage-131] | 0.401 | 2.34 |  |
| MDWCPTNLWHECFA (tested as crude clonal phage supernatant) [Phage-138] | 0.096 | 2.16 |  |
| MDWCPRYLWHECFH (tested as crude clonal phage supernatant) [Phage-137] | 0.308 | 2.19 |  |
| MDWCPRALWNECFA (tested as crude clonal phage supernatant) [Phage-127] | 0.375 | 2.38 |  |
| MDWCPRYLWDACFF (tested as crude clonal phage supernatant) [Phage-130] | 0.168 | 2.34 |  |
| MDWCPRFLWNECFN (tested as crude clonal phage supernatant) [Phage-126] | 0.503 | 2.4 |  |
| MDWCPRDLWHACFS (tested as crude clonal phage supernatant) [Phage-120] | 0.173 | 2.41 |  |
| MDWCPMYLWNECFS (tested as crude clonal phage supernatant; not shown: pIII of the bacteriophage to which the peptide is fused) [Phage-80, clonal phage peptide MDWCPMYLWNECFS] |  |  | 0.411 |
| MDWCPVSLWHVCFY (tested as crude clonal phage supernatant) [Phage-125] | 0.409 | 2.4 |  |
| MDWCPKFLWHECFS (tested as crude clonal phage supernatant; also called position 7 is F in the position column) [Phage-135] | 0.142 | 2.28 |  |
| MDWCPRHLWDECFF (tested as crude clonal phage supernatant) [Phage-118] | 0.663 | 2.46 |  |
| MDWCPRFLWDECFF (tested as crude clonal phage supernatant; also called position 7 is F in the position column) [Phage-133] | 0.246 | 2.28 |  |
| MDWCPRDLWIECFF (tested as crude clonal phage supernatant) [Phage-128] | 0.137 | 2.37 |  |
| MDWCPRFLWSVCFN (tested as crude clonal phage supernatant; not shown: pIII of the bacteriophage to which the peptide is fused) [Phage-81, clonal phage peptide …] |  |  | 1.15 |
| MDWCPRDLWHVCFF (tested as crude clonal phage supernatant) [Phage-121] | 0.268 | 2.41 |  |
